B1: GST-Orc2N200-I194E (domain or fragment)
chain: MLNGEDFVEHNDILSSPAKSRNVTPKRVDPHGERQLRRIHSSKKNLLERISLVGNERKNTSPDPALKPKTPSKAPRKRGRPRKIQEELTDRIKKDEKDTISSKKKRKLDKDTSGNVNEESKTSNNKQVMEKTGIKEKREREKIQVATTTYEDNVTPQTDDNFVSNSPEPPEPATPSKKSLTTNHDFTSPLKQIEMNNLKE
B2: His-SUMO-Cdc6 (natural protein)
chain: MSAIPITPTKRIRRNLFDDAPATPPRPLKRKKLQFTDVTPESSPEKLQFGSQSIFLRTKALLQKSSELVNLNSSDGALPARTAEYEQVMNFLAKAISEHRSDSLYITGPPGTGKTAQLDMIIRQKFQSLPLSLSTPRSKDVLRHTNPNLQNLSWFELPDGRLESVAVTSINCISLGEPSSIFQKIFDSFQDLNGPTLQIKNMQHLQKFLEPYHKKTTFVVVLDEMDRLLHANTSETQSVRTILELFLLAKLPTVSFVLIGMANSLDMKDRFLSRLNLDRGLLPQTIVFQPYTAEQMYEIVIQKMSSLPTIIFQPMAIKFAAKKCAGNTGDLRKLFDVLRGSIEIYELEKRFLLSPTRGSLNSAQVPLTPTTSPVKKSYPEPQGKIGLNYIAKVFSKFVNNNSTRTRIAKLNIQQKLILCTIIQSLKLNSDATIDESFDHYIKAITKTDTLAPLQRNEFLEICTILETCGLVSIKKTKCKGKTKRFVDKIDVDLDMREFYDEMTKISILKPFLH

How the values were obtained:
[1] = molecular target: Cdt1-Mcm2-7 heptamer (S. cerevisiae, UniProt P47112;P29469;P24279;P30665;P29496;P53091;P38132); assay: pull-down
[2] = molecular target: Orc2-I194E containing ORC (S. cerevisiae, UniProt P54784;P32833;P54790;P54791;P50874;P38826, I194E); assay: MCM loading assay on DNA beads
[3] = molecular target: Orc2-ΔN175 containing ORC (S. cerevisiae, UniProt P54784;P32833;P54790;P54791;P50874;P38826); assay: MCM loading assay on DNA beads
[4] = molecular target: Orc2-ΔN200 containing ORC (S. cerevisiae, UniProt P54784;P32833;P54790;P54791;P50874;P38826); assay: MCM loading assay on DNA beads
[5] = molecular target: origin recognition complex (ORC), wild type (S. cerevisiae, UniProt P54784;P32833;P54790;P54791;P50874;P38826); assay: MCM loading assay on DNA beads

binding result [1]	binding result [2]	binding result [3]	binding result [4]	binding result [5]	Binder
binds	–	–	–	–	B1
–	binds	binds	binds	binds	B2

— publication PMC11399261 (Nature Communications, 2024)
